Results: PMC7536822, “Implications for tetraspanin-enriched microdomain assembly based on structures of CD9 with EWI-F” (Life Science Alliance, 2020)

T1: full-length EWI-F (human, UniProt Q9P2B2 26-879)
T1 construct: human EWI-F, full length, UniprotKB Q9P2B2; All EWI-F constructs were cloned with an N-terminal cystatin signal peptide; Heterogeneously glycosylated; also called CD9-partner 1; prostaglandin F2 receptor negative regulator; source: HEK293-EBNA cells, co-transfected with Strep3-GFP-CD9-W6; in lysate, co-purified (Strep-Tactin, SEC)
T1 sequence (looked up): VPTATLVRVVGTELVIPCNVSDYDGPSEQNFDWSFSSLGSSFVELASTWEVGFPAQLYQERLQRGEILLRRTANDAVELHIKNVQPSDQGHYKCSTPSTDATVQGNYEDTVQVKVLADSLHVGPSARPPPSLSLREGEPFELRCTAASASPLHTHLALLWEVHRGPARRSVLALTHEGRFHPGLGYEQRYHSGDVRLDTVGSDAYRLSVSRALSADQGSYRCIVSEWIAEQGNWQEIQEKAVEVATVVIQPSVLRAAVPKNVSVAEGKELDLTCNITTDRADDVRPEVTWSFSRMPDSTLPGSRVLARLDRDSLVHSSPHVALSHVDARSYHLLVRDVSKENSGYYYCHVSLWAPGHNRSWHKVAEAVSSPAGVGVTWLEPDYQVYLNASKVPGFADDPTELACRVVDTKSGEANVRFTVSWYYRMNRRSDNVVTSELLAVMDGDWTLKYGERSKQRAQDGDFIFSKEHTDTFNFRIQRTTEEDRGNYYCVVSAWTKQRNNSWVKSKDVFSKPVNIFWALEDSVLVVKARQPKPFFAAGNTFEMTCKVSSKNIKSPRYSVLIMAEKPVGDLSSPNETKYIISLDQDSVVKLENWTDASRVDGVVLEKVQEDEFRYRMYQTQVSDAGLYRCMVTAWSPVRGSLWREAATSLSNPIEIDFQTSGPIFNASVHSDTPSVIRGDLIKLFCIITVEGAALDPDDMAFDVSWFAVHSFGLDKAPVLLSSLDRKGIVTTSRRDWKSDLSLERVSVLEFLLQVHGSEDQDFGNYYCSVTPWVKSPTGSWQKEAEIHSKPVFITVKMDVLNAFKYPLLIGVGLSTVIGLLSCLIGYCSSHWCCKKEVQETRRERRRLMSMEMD

T2: endogenous CD9 on HeLa cells (human (endogenous in HeLa), UniProt P21926 1-228)
T2 chain: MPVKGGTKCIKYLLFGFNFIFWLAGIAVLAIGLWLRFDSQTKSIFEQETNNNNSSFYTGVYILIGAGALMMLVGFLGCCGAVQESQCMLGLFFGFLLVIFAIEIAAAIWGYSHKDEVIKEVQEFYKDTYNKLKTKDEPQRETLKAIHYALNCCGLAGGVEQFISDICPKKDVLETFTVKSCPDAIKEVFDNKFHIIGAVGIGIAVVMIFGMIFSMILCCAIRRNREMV

T3: detergent-purified, full-length CD9 (wtCD9-3xSTREP) (human, UniProt P21926 1-228)
T3 chain: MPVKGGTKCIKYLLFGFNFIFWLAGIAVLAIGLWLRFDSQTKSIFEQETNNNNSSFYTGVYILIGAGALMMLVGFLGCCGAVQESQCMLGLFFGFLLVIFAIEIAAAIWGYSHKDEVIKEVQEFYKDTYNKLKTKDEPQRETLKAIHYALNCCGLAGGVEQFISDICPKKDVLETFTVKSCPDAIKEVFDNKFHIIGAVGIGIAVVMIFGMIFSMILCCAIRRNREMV


What was measured:
full-length EWI-F = target: T1, full-length EWI-F; assay: pull-down; Strep3-GFP-CD9-W6 co-transfected with EWI-F variants in 25 ml HEK293-EBNA cultures; lysis in 1% DDM, 0.5% digitonin; Strep-Tactin resin, washes in 0.08% digitonin, elution with desthiobiotin; SDS-PAGE; details: partners not purified
[1] = target: T2, endogenous CD9 on HeLa cells; assay: apparent, on HeLa cells
[2] = target: T3, detergent-purified, full-length CD9 …; assay: ELISA; apparent, detergent-purified CD9
[3] = target: T4, CD9–EWI-F_(ΔIg1-5) complex (human, UniProt P21926;Q9P2B2); assay: SEC; purified, EndoHF-treated CD9–EWI-F_(ΔIg1-5) complex incubated with a large excess of 4C8, Superdex 200 10/300 increase in 50 mM Tris pH 7.8, 150 mM NaCl, 0.08% digitonin, 4°C; SDS-PAGE of the peak; details: both partners purified
T4 construct: human CD9 (Tspan29), wild type, full length; as m12; human EWI-F, residues T685-D879, UniprotKB Q9P2B2; as m11; Preformed complex to which 4C8 was added; source: HEK293-EBNA GNT1- cells, co-expressed, co-purified in digitonin (Strep-Tactin), EndoHF treated; not shown: Strep-II, N-terminal, kept; copies: 2 + 2

[4] = target: T5, detergent-purified, full-length CD9 (wtCD9-3xSTREP) (human, UniProt P21926); assay: ELISA; 100 ng wtCD9-3Strep captured on Strep-Tactin coated wells; serial dilutions of nanobody for 2 h at rt in 2% BSA, 25 mM Hepes pH 7.5, 150 mM NaCl, 0.025% DDM; detection with anti-VHH and IRDye800CW; triplicate; apparent KD by one-site specific binding fit; details: both partners purified
T5 construct: human CD9 (Tspan29), wild type, full length; The construct section lists full-length CD9 with an N-terminal Strep-II tag or an N-terminal Strep3-GFP tag with a TEV site; also called wtCD9-3Strep; source: detergent-purified

[5] = target: T6, endogenous CD9 on HeLa cells (human (endogenous in HeLa), UniProt P21926); assay: binding assay on cells in 96-well plates, infrared fluorescence read-out (anti-VHH, IRDye800CW, Odyssey); HeLa cells seeded in 96-well plates, serial dilutions of nanobody for 2 h at 4°C in 1% BSA, 25 mM Hepes pH 7.2 in DMEM; cells fixed with 4% formaldehyde before detection; triplicate; apparent KD by one-site specific binding fit; details: one partner purified
T6 construct: CD9 (Tspan29) endogenous on HeLa cells; also called CD9 endogenously expressed on HeLa cells; cell-membrane embedded CD9; source: endogenous, on HeLa cells

| Binder | binding result (full-length EWI-F) | Kd [1] | Kd [2] | binding result [3] | binding result [4] | binding result [5] |
| --- | --- | --- | --- | --- | --- | --- |
| N-Strep3-GFP-tagged CD9-W6 (natural protein, human, UniProt P21926 1-228, looked up, human CD9 (Tspan29), full length, all palmitoylated cysteines mutated to tryptophan (CD9-W6); The Strep3-GFP tag is followed by a TEV-protease site; The results speak only of 'Strep-GFP-tagged CD9'; the methods name CD9-W6 for these experiments; also called Strep-GFP-tagged CD9; source: HEK293-EBNA cells, co-transfected with EWI-F variants; in lysate (DDM or DDM/digitonin), Strep-Tactin purified, …) MPVKGGTKWIKYLLFGFNFIFWLAGIAVLAIGLWLRFDSQTKSIFEQETNNNNSSFYTGVYILIGAGALMMLVGFLGWWGAVQESQWMLGLFFGFLLVIFAIEIAAAIWGYSHKDEVIKEVQEFYKDTYNKLKTKDEPQRETLKAIHYALNCCGLAGGVEQFISDICPKKDVLETFTVKSCPDAIKEVFDNKFHIIGAVGIGIAVVMIFGMIFSMILWWAIRRNREMV | binds | – | – | – | – | – |
| anti-CD9 nanobody 4C8 (VHH, they are in the deposited structures PDB 6Z1Z (4C8 alone) and PDB 6Z20 (nanobody chain of CD9EC2-4C8); Selected from a phage library (Neviani et al, 2020); The thrombin-cleavable His tag was removed with thrombin; also called Nb 4C8; source: E. coli BL-21 Codon Plus (DE3)-RIL, periplasmic secretion, purified (HisTrap, desalting; thrombin treatment, Superdex75); not shown: His6, C-terminal, cleaved) VHH: EVQLVESGGGLVQAGGSLRLSCAASGRTFSDYVMGWFRQAPGKERTFVARIGWSGDLTYYADSVKGRFTISRDNAKNTVYLQMNSLKPEDTAIYYCAADERWGTGGKFDYWGQGTQVTVSS | – | 0.59 nM | 0.9 nM | binds | binds | binds |
| anti-CD9 nanobody 4E8 (VHH, they are in the deposited structure PDB 6Z1V (nanobody chain of CD9EC2-4E8); Differs from 4C8 in CDR2 and CDR3; The thrombin-cleavable tag was not removed before crystallization; also called Nb 4E8; source: E. coli BL-21 Codon Plus (DE3)-RIL, periplasmic secretion, purified (HisTrap, desalting); not shown: His6, C-terminal, kept) VHH: EVQLVESGGRLVRTGGSLRLSCAASGRTFSNYVMGWFRQAPGKEREVVAAITWSGDITWHADFVKGRFTISRDNAKNTVYLQMNSLKPEDTAVYYCAATERWGLRAPADWGSWGQGTQVTVSS | – | 32.6 nM | 2.01 nM | – | binds | binds |
